Results as given in patent publication US20120121596A1 (published 2012).
Substitutions are numbered along the chain they refer to.

B1: DL11 (mIgG2A) (bispecific antibody, V domains shown)
VH: EVQLVESGGGLVQPGGSLRLSCAASGFTLSGDWIHWVRQAPGKGLEWLGEISAAGGYTDYADSVKGRFTISADTSKNTAYLQMNSLRAEDTAVYYCARESRVSFEAAMDYWGQGTLVTVSS
VL: DIQMTQSPSSLSASVGDRVTITCRASQDLATDVAWYQQKPGKAPKLLIYSASFLYSGVPSRFSGSGSGTDFTLTISSLQPEDFATYYCQQSEPEPYTFGQGTKVEIKR
B2: DL11b (bispecific antibody, V domains shown)
VH: B1 VH
VL: B1 VL with D28N, L29I
B3: D1.5-113 (phage-displayed Fab clone) (Fab, V domains shown)
VH: B1 VH with L29F, S30T, D32N, L48V, A53P, A54S, F104Y
VL: DIQMTQSPSSLSASVGDRVTITCRASQSLLASHDGTPWVAWYQQKPGKAPKLLIYDASYLYSGVPSRFSGSGSGTDFTLTISSLQPEDFATYYCQQSTFAPYTFGQGTKVEIKR
notes: EGFR/HER3 clone
B4: D1.5-103 (phage-displayed Fab clone) (Fab, V domains shown)
VH: B1 VH with L29F, S30T, D32N, L48V, A53P, A54S, F104Y
VL: DIQMTQSPSSLSASVGDRVTITCRASQALGDSENGYADVAWYQQKPGKAPKLLIYEGSSLYSGVPSRFSGSGSGTDFTLTISSLQPEDFATYYCQQAAPSPYTFGQGTKVEIKR
notes: EGFR/HER3 clone
B5: D1.5-121 (phage-displayed Fab clone) (Fab, V domains shown)
VH: B1 VH with L29F, S30T, D32N, L48V, A53P, A54S, F104Y
VL: B1 VL with L29V, A30G, T31S, V33L, F53Y, E92D
notes: EGFR/HER3 clone
B6: D1.5-115 (phage-displayed Fab clone) (Fab, V domains shown)
VH: B1 VH with L29F, S30T, D32N, L48V, A53P, A54S, F104Y
VL: B1 VL with D28E, L29I, A30F, T31P, F53S, S91A, E92A, E94T
notes: EGFR/HER3 clone
B7: D1.5-116 (phage-displayed Fab clone) (Fab, V domains shown)
VH: B1 VH with L29F, S30T, D32N, L48V, A53P, A54S, F104Y
VL: B1 VL with D28A, L29I, T31S
notes: EGFR/HER3 clone
B8: D1.5-122 (phage-displayed Fab clone) (Fab, V domains shown)
VH: B1 VH with L29F, S30T, D32N, L48V, A53P, A54S, F104Y
VL: B1 VL with D28N, L29I, T31S, F53S, E92D
notes: EGFR/HER3 clone
B9: D1.5-201-3 (phage-displayed Fab clone) (Fab, V domains shown)
VH: B1 VH with L29F, S30T, D32N, L48V, A53P, A54S, F104Y
VL: DIQMTQSPSSLSASVGDRVTITCRASQSLWAAYFAPVAWYQQKPGKAPKLLIYDGSYLYSGVPSRFSGSGSGTDFTLTISSLQPEDFATYYCQQRLPSPYTFGQGTKVEIKR
B10: D1.5-201-2 (phage-displayed Fab clone) (Fab, V domains shown)
VH: B1 VH with L29F, S30T, D32N, L48V, A53P, A54S, F104Y
VL: B9 VL with S26N, L29I, W30A, A31G, F34Y, S56Y, Y57F
B11: DL3-11f (antibody, V domains shown)
VH: B1 VH with L48V, R101K
VL: B1 VL with D28N, L29I
B12: DL3-11b (antibody, V domains shown)
VH: B1 VH with R101K
VL: B1 VL with D28N, L29I
notes: also called DL3-11fb
B13: D1.5-103 (mIgG2A) (bispecific antibody, V domains shown)
VH: B1 VH with L29F, S30T, D32N, L48V, A53P, A54S, F104Y
VL: B4 VL
B14: D1.5-100 (mIgG2A) (bispecific antibody, V domains shown)
VH: B1 VH with L29F, S30T, D32N, L48V, A53P, A54S, F104Y
VL: B1 VL
notes: also called anti-EGFR/HER3 antibody D1.5-100
B15: D1.5-113 (mIgG2A) (bispecific antibody, V domains shown)
VH: B1 VH with L29F, S30T, D32N, L48V, A53P, A54S, F104Y
VL: B3 VL
B16: D1.5-122 (mIgG2A) (bispecific antibody, V domains shown)
VH: B1 VH with L29F, S30T, D32N, L48V, A53P, A54S, F104Y
VL: B1 VL with D28N, L29I, T31S, F53S, E92D
B17: D1.5-116 (mIgG2A) (bispecific antibody, V domains shown)
VH: B1 VH with L29F, S30T, D32N, L48V, A53P, A54S, F104Y
VL: B1 VL with D28A, L29I, T31S
B18: D1.5-121 (mIgG2A) (bispecific antibody, V domains shown)
VH: B1 VH with L29F, S30T, D32N, L48V, A53P, A54S, F104Y
VL: B1 VL with L29V, A30G, T31S, V33L, F53Y, E92D
B19: D1.5-115 (mIgG2A) (bispecific antibody, V domains shown)
VH: B1 VH with L29F, S30T, D32N, L48V, A53P, A54S, F104Y
VL: B1 VL with D28E, L29I, A30F, T31P, F53S, S91A, E92A, E94T

Target: HER3 on cells (MCF7 cells; MDA-175 cells) (UniProt P21860 20-1342, limits assumed)
Experiment: cell-based or functional assay

Binder	IC50 of inhibition of MDA-175 cell proliferation [µg/mL]
B1	0.8 to 1
B2	0.8 to 1

Target: T1, HER2-ECD (human, UniProt P04626 23-652)
T1 construct: extracellular domain
Experiment: direct phage ELISA, proteins coated at 2 µg/ml, phage-Fab supernatant, OD450;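 note: specificity test of dual-activity clones, with binding assessed across an antigen panel to check whether each recognises only its cognate target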

Binder	binding result
B3	no binding
B4	no binding
B5	no binding
B6	no binding
B7	no binding
B8	no binding

Target: T2, HER4-ECD-Fc (human, UniProt Q15303 26-651, limits assumed)
T2 construct: extracellular domain
T2 sequence (looked up): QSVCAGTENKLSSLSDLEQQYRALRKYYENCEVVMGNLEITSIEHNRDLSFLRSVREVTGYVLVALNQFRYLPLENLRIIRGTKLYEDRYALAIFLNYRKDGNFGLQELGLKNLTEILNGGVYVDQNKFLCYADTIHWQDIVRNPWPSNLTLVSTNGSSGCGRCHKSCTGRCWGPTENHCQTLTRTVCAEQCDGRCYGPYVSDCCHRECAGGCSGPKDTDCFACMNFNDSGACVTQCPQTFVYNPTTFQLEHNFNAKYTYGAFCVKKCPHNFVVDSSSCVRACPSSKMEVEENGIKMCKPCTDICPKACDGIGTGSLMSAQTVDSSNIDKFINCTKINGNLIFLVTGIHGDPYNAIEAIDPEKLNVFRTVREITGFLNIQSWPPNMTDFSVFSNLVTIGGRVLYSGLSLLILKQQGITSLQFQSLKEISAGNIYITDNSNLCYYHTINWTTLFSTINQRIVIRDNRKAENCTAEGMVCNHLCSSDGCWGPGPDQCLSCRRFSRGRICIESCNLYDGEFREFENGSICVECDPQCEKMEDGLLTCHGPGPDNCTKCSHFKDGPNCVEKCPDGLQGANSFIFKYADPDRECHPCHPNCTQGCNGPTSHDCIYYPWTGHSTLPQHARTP
Experiment: as above

Binder	binding result
B3	no binding
B4	no binding
B5	no binding
B6	no binding
B7	no binding
B8	no binding

Target: T3, hEGFR-ECD (human, UniProt P00533 25-645)
T3 construct: extracellular domain
Experiment: as above

Binder	binding result
B3	binds
B4	binds
B5	binds
B6	binds
B7	binds
B8	binds

Target: T4, HER3-ECD-Fc (human, UniProt P21860 20-643, limits assumed)
T4 construct: extracellular domain; also called HER3-FC; HER3-IgG
Experiment: as above

Binder	binding result
B3	binds
B5	binds
B6	binds
B7	binds

Target: T5, BSA (bovine, UniProt P02769)
T5 construct: also called bovine serum albumin
T5 sequence (P02769 25-607 limits assumed): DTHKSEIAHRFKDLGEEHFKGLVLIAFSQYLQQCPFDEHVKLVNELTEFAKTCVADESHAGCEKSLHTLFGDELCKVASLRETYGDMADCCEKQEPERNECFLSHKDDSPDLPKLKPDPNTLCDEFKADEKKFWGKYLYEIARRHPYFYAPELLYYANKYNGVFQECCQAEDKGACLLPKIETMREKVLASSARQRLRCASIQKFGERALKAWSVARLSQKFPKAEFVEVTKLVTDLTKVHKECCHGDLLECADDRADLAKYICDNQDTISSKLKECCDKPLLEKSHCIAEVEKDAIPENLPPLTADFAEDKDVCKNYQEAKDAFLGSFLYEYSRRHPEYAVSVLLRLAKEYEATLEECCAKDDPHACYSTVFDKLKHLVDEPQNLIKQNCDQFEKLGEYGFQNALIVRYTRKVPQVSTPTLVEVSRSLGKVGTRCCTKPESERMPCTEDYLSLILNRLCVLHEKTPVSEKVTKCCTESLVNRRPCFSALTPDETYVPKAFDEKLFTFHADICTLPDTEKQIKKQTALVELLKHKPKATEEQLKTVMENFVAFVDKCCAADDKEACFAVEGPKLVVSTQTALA
Experiment: as above

Binder	binding result
B3	no binding
B4	no binding
B5	no binding
B6	no binding
B7	no binding
B8	no binding

Target: T6, Erbitux
T6 construct: also called cetuximab; C225; not shown: the constant regions
Experiment: as above

Binder	binding result
B3	no binding
B4	no binding
B5	no binding
B6	no binding
B7	no binding

Target: T1, HER2-ECD
Experiment: phage IC50 (solution competition ELISA), compared to D1.5-201

Binder	binding result
B9	binds
B10	binds

Target: T3, hEGFR-ECD
Experiment: as above

Binder	binding result
B9	binds
B10	binds

Target: HER3 (form not given) (human, UniProt P21860 20-643, limits assumed)
Experiment: affinity maturation of DL11

Binder	binding result
B11	binds
B12	binds

Target: T4, HER3-ECD-Fc
Experiment: competition with 125I-HRG for HER3-ECD-Fc captured on anti-human antibody plates, antibody pre-bound, counts as % of control

Binder	IC50 (read off the curve) [nM]	binding result
B13	~3	
B14	~2	
B15		binds
B16	~3	
B17		binds
B18		binds
B19		binds
